Assay results from patent publication US20190031761A1 (SAMSUNG LIFE PUBLIC WELFARE FOUNDATION, published 2019).

Tests used:
[1] = molecular target: T1, EGFRvIII expressed in cells (vIII352T1 cells; 626 patient-derived cells) (human, UniProt P00533 25-1210); experiment: FACS on vIII352T1 cells (EGFRvIII only), Alexa Fluor 488 anti-human IgG
T1 construct: whole, on cells; On vIII352T1 cells (EGFR-/EGFRvIII+) in FACS and cytotoxicity assays

[2] = molecular target: EGFR expressed on cells (780 patient-derived cells; normal human epidermal keratinocytes) (human, UniProt P00533 25-1210); experiment: FACS on normal human epidermal keratinocytes (EGFR only), Alexa Fluor 488 anti-human IgG
[3] = molecular target: T2, EGFRvIII recombinant protein with Fc tag, produced in-house (human); experiment: SPR (Biacore T200), antibody captured with human Fab capture kit, EGFRvIII antigen 0.25 nM to 256 nM as analyte
T2 construct: Produced in Expi293 cells; also called EGFRvIII antigen

[4] = molecular target: T3, recombinant human EGFR/ErbB1 Fc chimera protein (R&D systems, 344-ER) (human, UniProt P00533 25-645); experiment: SPR (Biacore T200), B4A3 captured as ligand, rhEGFR-Fc as sample, 25 C, 1:1 Binding fit to sensorgrams that hardly leave the baseline
T3 construct: Bought protein; also called EGFR recombinant protein; Fc part of the bought chimera not given

T2 sequence (chain, as listed by the source limits assumed): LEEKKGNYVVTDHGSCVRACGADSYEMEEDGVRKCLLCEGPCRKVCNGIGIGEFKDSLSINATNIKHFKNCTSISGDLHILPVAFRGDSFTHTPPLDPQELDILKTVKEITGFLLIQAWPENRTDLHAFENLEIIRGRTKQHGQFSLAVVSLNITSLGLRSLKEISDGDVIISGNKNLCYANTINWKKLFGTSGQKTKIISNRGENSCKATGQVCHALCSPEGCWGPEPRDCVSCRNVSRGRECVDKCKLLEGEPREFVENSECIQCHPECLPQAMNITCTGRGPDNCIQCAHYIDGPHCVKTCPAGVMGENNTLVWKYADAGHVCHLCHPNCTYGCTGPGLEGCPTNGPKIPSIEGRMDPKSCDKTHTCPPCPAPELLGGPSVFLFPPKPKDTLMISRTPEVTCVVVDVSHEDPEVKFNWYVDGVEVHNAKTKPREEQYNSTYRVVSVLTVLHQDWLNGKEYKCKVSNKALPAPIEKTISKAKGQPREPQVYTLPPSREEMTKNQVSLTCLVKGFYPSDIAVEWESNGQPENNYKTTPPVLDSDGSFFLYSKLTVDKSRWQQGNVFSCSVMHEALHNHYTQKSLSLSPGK

B1: B4A3 antibody (human IgG1) (antibody, V domains shown)
VH: EVQLLESGGGLVQPGGSLRLSCAASGFTFSNYYMSWVRQAPGKGLEWVSGTSPNGGSKYYADSVKGRFTISRDNSKNTLYLQMNSLRAEDTAVYYCAKGRRKLRATRFDYWGQGTLVTVSS
VL: QSVLTQPPSASGTPGQRVTISCTGSSSNIGNNYVSWYQQHPGTAPKLLIYSDSNRPSGVPDRFSGSKSGTSASLAISGLRSEDEADYYCATWDASLSAYVFGGGTKLTVL
notes: also called B4A3 IgG; B4A3 human IgG1
EC50 (read off the curve) [1]: ~0.04 nM
EC50 (read off the curve) [2]: ~0.03 nM
Kd [3]: 4.38 nM
koff [3]: 0.000248 s⁻¹
kon [3]: 56600 M⁻¹ s⁻¹
koff [4]: 0.00801 s⁻¹
kon [4]: 632 M⁻¹ s⁻¹
